In the nanobody polyreactivity screen of Harvey et al. (2022):

Assay: yeast display, Sf9 membrane polyspecificity reagent, FACS + sequencing; frameworks hold sequencing errors
Procedure, shortened: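 A synthetic nanobody library was expressed on Saccharomyces cerevisiae BJ5465 by galactose induction for 36–48 hours. The library was stained for 1 hour at 4 °C with 10% biotinylated, detergent-solubilized Sf9 membrane reagent and enriched with streptavidin microbeads before FACS. Low and high (top ~1%) gates were set on anti-HA fluorescence for expression and streptavidin fluorescence for reagent binding, and each polyreactivity label reflects the gate of origin.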

Row | Sequence | polyreactivity (PSR sort gate)
1 | QVQLVESGGGLVQAGGSLRLSCAASGLTFGWYAMGWYRQAPGKERELVASITRRSGSTYYADSVKGRFTISRDNAKNTVYLQMNSLKPEDTAVYYCNAVPGYVYYYQYWGQGTQVTVSS | high polyreactivity
2 | QVQLVESGGGLVQAGGSLRLSCADSGSTFKGYTMGWYRQAPGKERELVAAIRSRSGNTYYADSVKGRFTISRDNAKNHVYLLMNSLKPEETAVYYCAAVQPYVDYDSWGQGTQVTVSS | high polyreactivity
3 | QVQLVESGGGLVQAGGSLRLSCAASGGIFFINAMGWYRQAPGKERELVAAISISDGSTYYADSVKGRFTISRDNAKNTVYLQMNSLKPEDTAVYYCAAEGFDWDSPEMEYWGQGTQVTGSS | low polyreactivity
4 | QVQLVESGGGLVQEGGSLRLSCAASGFTFDDYAMGWYRQAPGKERELVATITNSDSSTYYADSVKGRFTISRDNEKNTFYLQMNSLQPVDTAVYYCAADGRYAYGYNHWGHGTQVTVSS | low polyreactivity
5 | QVQLVESGGGLVQAGGSLRLSCAASGRIFFRNALGWYRQAPGKERELVAVINTGGSTNYADSVKGRFTISRDNAKNTVYLQMNSLTPEDTAVYYCAVDRASRRTYNQYGYWGQGTQVTVSS | high polyreactivity
6 | QVQLVESGGGLVQAGGSLRLSCAASGSIFRSYAMGWYRQAPGKEREFVAAIRNSSGRTYYADSVKGRFTISRDNAKNTVYLQMNSLKPEDTAVYYCAARLPRTYQGGKLYRLQYSWGQGTQVTVSS | high polyreactivity
7 | QVQLEESGGGLVQAGGSLRLSCPPSGSTYYVYAMGWYRPAPGKERELVAAIDGGDTYYADSVKGGFTISRDNAMNTVFLQMNSLKPEDTAVYYCAAESLPEISVGLGFWGQGTQVTVSS | low polyreactivity
8 | QVQLVESGGGLVQAGGSLRLSCAASGSIFDYNTMGWYRQAPGKERELVATISWSGDSTYYADSVKGRFTISRDNAKNTVYLQMNSLKPEDTAVYYCAKTAPPERYSAWRYSWGQGTQVTVSS | low polyreactivity
9 | QVQLVESGGGLVQAGGSLRLSCAASGSTFYLYAMGWYRQAPGKERELVAAISSGGRTNYADSVKGRFTISLDNAKNTVYLQINSLKPEDTAVYYCAARIQWPTWSLYYYWGQGSQVTVSS | high polyreactivity
10 | QVQLVESGGGLVQAGGSLRLSCAASGSTFYRYAMGWYRQAPGKERELVAAISTSGGRTYYADSVKGRFTISRDNAKNTVYLQMNSLKPEDTAVYYCAAPYQYGYWGQGTQVTVSS | high polyreactivity
11 | QDQLVESGGGLVQAGGSLRLSCAASGIIIWRYAMGRYRQAPRKERELVAGITSRGGSTYYADSVKGRFTISRDNAKNTVYLQMNSLKPEDTAVYYCNADWYGLLWWGVDYWGQGTQVTVSS | high polyreactivity
12 | QVQHVESGGGLVQAGGRLSLICSASGGNIKFNAMGWYRQAPGKERELVAAITDGGSTYYADSVKGRFTISRDNAKNTVYLEMNSLKAEDTAVYYCNAEGVSLYGYDSGVDSGEDYWGQGTQVTVSS | low polyreactivity
13 | QVQLVESGGGLVQAGGSLRLSCAASGRIYVNAMGWYIQAPGKERELVAAIRSGGSTNYADSVKGRFTISRDNAKNTVYLQMNSLKPEDTAVYYCNARRRDYRHWYDYWGQGTQVTVSS | high polyreactivity
14 | QVQLVESGGGLVQAGGSLRLSCAASGRIFHFYAMGWYRQAPGKERELVAAISWSGGSTYYADSVKGRFTISRDNAKNTVYLQMNSLKPEDTAVYYCSKVRGEVAHRKVQYDYWGQGTQVTVSS | low polyreactivity
15 | QVQLVESGGGLVQAGGSLRLSCAASGSIFSKYVMGWYRQAPGKERELVAAISWSGTRTYYADSVKGRFTISRDNAKNTVYLQMNSLKPEDTAVDYCAARRLYAGHQYDYWGQGTQVTVSS | high polyreactivity
16 | QVQLVESGGGLVQAGGSLRLSWAASGRIFGRYTMGWYTQAPGKERELVAAISSAGSTNYADSVKGRFTISRDNAKNTVYLQMNSLKPEDTAVYYCNRAKYVRYSLHYLGYARDYWGQGTQVTVSS | high polyreactivity
17 | QVQLQESGGGLGQAGRSLRHSFAASGNIFDAGIMGWYRQAPGEERELVACITDGGSTNYADSVKRRFTISRDNAKNTVYLQMNSQKPEDTAVYYCAASWDTIGLFAYWGQGTQVTVSS | high polyreactivity
18 | QVQLVESGGGLVQAGGSLRLSCAASGSTFSKYAMGWYRQAPGKERELEAAITRTGGRTYYADSVKGRFTISRDNANNTVYLQMNSLKPEDTAVYYCAASATFWGQGTQVTVSS | high polyreactivity
19 | QVQLVESGGGLVQAGGSLRLSCAASGRIFQYNAMGWYRQSPGKERELVAAIRRGGGSTYYADSVKGRFTISRDNAKNTVYLQMNSLKPEDTAVYYCAARRKRVSFYPEYDYWGQGTQVTVSS | low polyreactivity
20 | QVQLVESGGGLVQAGGSLRLSCAASGRTFRKNVMGWYRQAPGKEREFVASISSSGSSTYYADSVKGRFTISRDYAKNTVYLQMNSLKPEDTAVYYCAARSVYATKRKYDYWGQGTQVTVSS | high polyreactivity
21 | QVQLVESGGGLVQAGGSLRLRCAASGLTYSNAMGWYRQAPGKERELVAAISWRGGRTYYADSVKGRFTISRDNAKNTVYLQMNSLKPEDTAVYYCAKYAHGHKWYGYWGQGTQVTVSS | low polyreactivity
22 | QVQLVESGGCLVQAGGSLRLSCAASGSIFGENAMGWYRQAPGKERELVAAITSGGSTDYADSVKGRFTISRDNAKNTVYLQMNSLKTEDTAVYYCAASGRVGPGYWYDSWGQGTQVTVSS | low polyreactivity
